This passage reports estimated furin concentration in the cell culture medium resulting in equal or higher 90% fully processed FX of total FX (Emax model on Western blot densitometry and furin activity assay) results from patent publication US20160046957A1.

In this assay the target is human coagulation Factor X (human) (UniProt P00742). The experiment in a line: cell-based or functional assay.
Sequence of UniProt P00742 (P00742 41-488): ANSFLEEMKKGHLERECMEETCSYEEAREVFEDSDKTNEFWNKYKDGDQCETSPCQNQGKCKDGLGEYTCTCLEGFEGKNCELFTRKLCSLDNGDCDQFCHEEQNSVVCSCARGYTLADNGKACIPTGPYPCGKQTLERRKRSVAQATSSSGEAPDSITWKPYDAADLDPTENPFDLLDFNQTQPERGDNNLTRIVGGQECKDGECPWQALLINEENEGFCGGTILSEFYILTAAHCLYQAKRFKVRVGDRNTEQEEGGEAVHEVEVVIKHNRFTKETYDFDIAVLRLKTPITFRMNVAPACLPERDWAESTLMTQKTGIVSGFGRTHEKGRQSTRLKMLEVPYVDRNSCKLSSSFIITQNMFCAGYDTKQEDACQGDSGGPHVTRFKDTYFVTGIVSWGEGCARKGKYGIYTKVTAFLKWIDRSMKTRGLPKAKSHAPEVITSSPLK

Turning to “human furin (from UniProt P09958 108-794) (enzyme)”, the estimated furin concentration in the cell culture medium resulting in equal or higher 90% fully processed FX of total FX (Emax model on Western blot densitometry and furin activity assay) was over 57 U/mL.
